According to patent WO2019194217A1:

Target: active IL-18 protein (human IL-18, positions 37 to 193), expressed and purified in E. coli (human) (UniProt Q14116)
Assay: capillary western immunoassay (Wes), primary antibody at 1:25 dilution (16 μg/mL)

UniProt Q14116, sequence (Q14116 37-193 limits assumed): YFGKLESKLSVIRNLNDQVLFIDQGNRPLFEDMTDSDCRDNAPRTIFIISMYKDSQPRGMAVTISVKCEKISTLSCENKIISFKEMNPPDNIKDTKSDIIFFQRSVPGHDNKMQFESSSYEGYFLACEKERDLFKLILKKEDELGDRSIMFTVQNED

concentration of IL-18 protein detectable: 100 ng/mL
Substance: commercially available anti-IL-18 antibody D043-3: clone 25-2G
